Experiments:
Assay in all cases: purified protein
Conditions in all cases: PLP-reconstituted holo-enzyme, 200 µM alpha-ketoglutarate, 500 µM NAD+, 5 U GDH, 10 mM Tris-HCl pH 8.0
purified protein [1] = substrate: NCCC[C@H](N)C(=O)O
purified protein [2] = substrate: CC(=O)N[C@@H](CCCN)C(=O)O; type: biochemical, Escherichia coli
purified protein [3] = substrate: NCCC[C@H](NC(=O)CCC(=O)O)C(=O)O; type: biochemical, Escherichia coli

B1: AstC (Escherichia coli K-12) (protein)
chain: MSQPITRENFDEWMIPVYAPAPFIPVRGEGSRLWDQQGKEYIDFAGGIAVNALGHAHPELREALNEQASKFWHTGNGYTNEPVLRLAKKLIDATFADRVFFCNSGAEANEAALKLARKFAHDRYGSHKSGIVAFKNAFHGRTLFTVSAGGQPAYSQDFAPLPADIRHAAYNDINSASALIDDSTCAVIVEPIQGEGGVVPASNAFLQGLRELCNRHNALLIFDEVQTGVGRTGELYAYMHYGVTPDLLTTAKALGGGFPVGALLATEECARVMTVGTHGTTYGGNPLASAVAGKVLELINTPEMLNGVKQRHDWFVERLNTINHRYGLFSEVRGLGLLIGCVLNADYAGQAKQISQEAAKAGVMVLIAGGNVVRFAPALNVSEEEVTTGLDRFAAACEHFVSRGSS
notes: full-length, native untagged, no plasmid; purified from E. coli BL21(DE3) by Ni-NTA and size exclusion as apo-protein, reconstituted with PLP; about 406 residues; dimer
B1 was tested, and the Km (purified protein [1]) was 4,391 µM, the kcat (purified protein [1]) was 3.5 s⁻¹ and the kcat/Km (purified protein [1]) was 797 M⁻¹ s⁻¹. The Km (purified protein [2]) was 338 µM, the kcat (purified protein [2]) was 4.7 s⁻¹ and the kcat/Km (purified protein [2]) was 13900 M⁻¹ s⁻¹. For the same protein, the Km (purified protein [3]) was 284 µM, the kcat (purified protein [3]) was 3 s⁻¹ and the kcat/Km (purified protein [3]) was 10600 M⁻¹ s⁻¹.
